Reference: article PMC10003157, “Structurally Different Yet Functionally Similar: Aptamers Specific for the Ebola Virus Soluble Glycoprotein and GP1,2 and Their Application in Electrochemical Sensing”

Tests used:
His-Lcn2 = biological target: T1, His-Lcn2 (mouse, UniProt P11672 21-200); assay: filter binding; Nitrocellulose filter capture in PBS at 23-24 C (NA53 in NBB); EIS sensor in PBS with or without 10% serum; settings: protein: recombinant; tags: His; label: 5' 32P
T1 sequence: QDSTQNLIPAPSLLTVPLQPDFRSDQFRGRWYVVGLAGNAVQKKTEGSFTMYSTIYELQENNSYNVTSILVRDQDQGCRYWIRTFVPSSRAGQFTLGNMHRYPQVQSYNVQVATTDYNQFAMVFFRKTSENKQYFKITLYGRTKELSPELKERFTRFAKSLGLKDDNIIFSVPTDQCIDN

EBOV sGP [1] = biological target: T2, EBOV sGP (Zaire ebolavirus (EBOV), UniProt P60170); assay: filter binding; settings: protein: recombinant; tags: C-terminal thrombin site + 6xHis; chain copies: 2; label: 5' 32P
SUDV sGP [2] = biological target: T3, SUDV sGP (Sudan virus (SUDV), UniProt Q7T9E0 33-324); assay: filter binding; settings: protein: commercial; chain copies: 2; label: 5' 32P
T3 sequence: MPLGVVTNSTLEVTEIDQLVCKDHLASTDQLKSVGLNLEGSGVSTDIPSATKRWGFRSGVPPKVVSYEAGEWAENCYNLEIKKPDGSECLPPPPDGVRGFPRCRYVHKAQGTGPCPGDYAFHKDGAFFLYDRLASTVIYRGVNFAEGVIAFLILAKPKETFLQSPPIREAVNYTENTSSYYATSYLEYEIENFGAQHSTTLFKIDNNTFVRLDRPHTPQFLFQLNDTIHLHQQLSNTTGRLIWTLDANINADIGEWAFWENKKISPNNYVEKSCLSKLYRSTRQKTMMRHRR

EBOV sGP [3] = biological target: T2, EBOV sGP; assay: electrochemical impedance (NAAO sensor); 10% human serum; settings: protein: recombinant; tags: C-terminal thrombin site + 6xHis; chain copies: 2
SUDV sGP [4] = biological target: T3, SUDV sGP; assay: electrochemical impedance (NAAO sensor); PBS; same affinity as EBOV sGP; settings: protein: commercial; chain copies: 2
NGAL = NGAL (human, UniProt P80188 21-198); assay: filter binding; with or without 10 mM DTT, no effect; NBB buffer; settings: protein: recombinant; label: 32P

B1: 6011 (ssDNA)
DNA: GCCTGTTGTGAGCCTCCTGTCGAACAACCACTCATATCTACTACATGACTTGCTCCATTCTGTTCTTTCTCTACGCATTGAGCGTTTATTCTTGTCTCCC
binding result (His-Lcn2): no binding | Kd (EBOV sGP [1]): 8.5 ± 3.2 nM | Kd (SUDV sGP [2]): 165 ± 44 nM

B2: 6022 (ssDNA)
DNA: GCCTGTTGTGAGCCTCCTGTCGAACCCTATCTTGTTCATGCTATTCTCAATATTTTCGGTTCACTTACCGTCTGCCTTTGAGCGTTTATTCTTGTCTCCC
Kd (EBOV sGP [1]): ~23 nM

B3: 5'thio-6011 (ssDNA)
DNA: B1 DNA
modifications: 5' thiol
Kd (EBOV sGP [3]): 2.2 ± 0.75 nM | binding result (SUDV sGP [4]): binds

B4: 6020 (ssDNA)
DNA: GCCTGTTGTGAGCCTCCTGTCGAACATACCGTTCCACCCACATTTCAACCTTCATCCATCCTATTATTAGCCCACTCTTGAGCGTTTATTCTTGTCTCCC
binding result (EBOV sGP [1]): no binding

B5: 6012 (ssDNA)
DNA: GCCTGTTGTGAGCCTCCTGTCGAACGTATTTCTTGCTTCCTTCCTTGCCGCGCACATTGCAGTATAAGTACCTGTCGTTGAGCGTTTATTCTTGTCTCCC
Kd (EBOV sGP [1]): 27 ± 12 nM | Kd (SUDV sGP [2]): 151 ± 44 nM

B6: NA53 (ssDNA)
DNA: AGCAGCACAGAGGTCAGATGCCGTGCGGATGTACAGGGACTTGGATAGTTTCTGACCTATGCGTGCTACCGTGAA
binding result (NGAL): binds

B7: 70SGP2A (ssDNA)
DNA: GCCTGTTGTGAGCCTCCTGTCGAACAACCACTCATATCTACTACATGACTTGCTCCATTCTGTTCTTTCT
Kd (EBOV sGP [1]): 27 ± 15 nM
